Results on two molecules are retold here after article PMC3374083 (Cell Death and Differentiation, 2012).

First the molecules themselves.
B1: human Fas ligand, recombinant (ligand)
chain: QIGHPSPPPEKKELRKVAHLTGKSNSRSMPLEWEDTYGIVLLSGVKYKKGGLVINETGLYFVYSKVYFRGQSCNNLPLSHKVYMRNSKYPQDLVMMEGKMMSYCTTGQMWARSSYLGAVFNLTSADHLYVNVSELSLVNFEESQTFFGLYKL
B2: monomeric human Fas receptor extracellular domain (domain or fragment)
chain: QVTDINSKGLELRKTVTTVETQNLEGLHHDGQFCHKPCPPGERKARDCTVNGDEPDCVPCQEGKEYTDKAHFSSKCRRCRLCDEGHGLEVEINCTRTQNTKCRCKPNFFCNSTVCEHCDPCTKCEHGIIKECTLTSNTKCKEEGSRSN

Assay [1] deals with B2. As to the kind of experiment: cell-based or functional assay.
The target in assay [2] is B2. As to the kind of experiment: cell-based or functional assay. This is another data set of the same source.
The target of assay [3] is B1. As to the kind of experiment: SPR. (Surface plasmon resonance follows binding to a sensor surface in real time, without labels.)

One may read the Kd as a measure of binding affinity in units of concentration.

With B1, the “DNA fragmentation (oligonucleosomes in the cytosol) in Jurkat cells, 8 h, EC50” value in assay [1] came to 2.8 nM. Further, in assay [2], the “Jurkat cell killing (cell-viability assay), EC50” value turned out to be 7.1 nM. On to B2, for which the Kd in assay [3] worked out at 14 nM.
